From paper PMC3791872, “Ciprofloxacin is an inhibitor of the Mcm2-7 replicative helicase”

Experiments:
Test in all cases: double filter binding; 1 mM ciprofloxacin (modest effect); Double filter binding, 150 nM helicase hexamer, 4 nM ssDNA, 20 min inhibitor preincubation at 37 C; binding buffer not stated in the material (helicase buffer:)
[1] = molecular target: Mcm467 (UniProt P30665;P53091;P38132 1-933;1-1017;1-845); settings: chain copies: 2;2;2; label: 5'-32P; single strand
[2] = molecular target: SV40 large T antigen (TAg) (SV40, UniProt P03070 1-708); settings: chain copies: 6; label: 5'-32P; single strand
[3] = molecular target: Mcm2-7 (UniProt P29469;P24279;P30665;P29496;P53091;P38132 1-868;1-971;1-933;1-775;1-1017;1-845); settings: copies: 1;1;1;1;1;1; label: 5'-32P; single strand

Measured: binding result

SV40 large T antigen (TAg), sequence (P03070 whole entry): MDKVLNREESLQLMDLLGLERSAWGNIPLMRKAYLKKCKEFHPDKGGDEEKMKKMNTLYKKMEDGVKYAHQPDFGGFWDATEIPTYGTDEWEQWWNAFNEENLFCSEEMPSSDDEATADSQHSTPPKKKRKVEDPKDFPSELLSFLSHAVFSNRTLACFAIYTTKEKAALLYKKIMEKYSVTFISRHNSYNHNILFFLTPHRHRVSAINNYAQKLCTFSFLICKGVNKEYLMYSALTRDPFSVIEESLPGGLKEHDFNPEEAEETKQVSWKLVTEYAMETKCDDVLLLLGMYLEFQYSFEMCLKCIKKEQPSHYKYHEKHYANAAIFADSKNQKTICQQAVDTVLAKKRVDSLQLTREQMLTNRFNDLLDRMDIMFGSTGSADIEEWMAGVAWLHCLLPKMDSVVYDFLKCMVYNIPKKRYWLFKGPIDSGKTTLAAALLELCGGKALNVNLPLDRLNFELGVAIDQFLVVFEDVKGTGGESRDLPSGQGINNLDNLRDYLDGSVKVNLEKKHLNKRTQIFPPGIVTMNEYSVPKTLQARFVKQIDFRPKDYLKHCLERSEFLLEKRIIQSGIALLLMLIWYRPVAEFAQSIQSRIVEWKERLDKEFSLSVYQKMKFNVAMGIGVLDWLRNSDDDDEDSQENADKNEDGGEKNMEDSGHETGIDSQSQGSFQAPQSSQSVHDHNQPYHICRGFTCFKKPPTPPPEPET
Mcm467, sequence (P30665 whole entry, chain 1 of 3): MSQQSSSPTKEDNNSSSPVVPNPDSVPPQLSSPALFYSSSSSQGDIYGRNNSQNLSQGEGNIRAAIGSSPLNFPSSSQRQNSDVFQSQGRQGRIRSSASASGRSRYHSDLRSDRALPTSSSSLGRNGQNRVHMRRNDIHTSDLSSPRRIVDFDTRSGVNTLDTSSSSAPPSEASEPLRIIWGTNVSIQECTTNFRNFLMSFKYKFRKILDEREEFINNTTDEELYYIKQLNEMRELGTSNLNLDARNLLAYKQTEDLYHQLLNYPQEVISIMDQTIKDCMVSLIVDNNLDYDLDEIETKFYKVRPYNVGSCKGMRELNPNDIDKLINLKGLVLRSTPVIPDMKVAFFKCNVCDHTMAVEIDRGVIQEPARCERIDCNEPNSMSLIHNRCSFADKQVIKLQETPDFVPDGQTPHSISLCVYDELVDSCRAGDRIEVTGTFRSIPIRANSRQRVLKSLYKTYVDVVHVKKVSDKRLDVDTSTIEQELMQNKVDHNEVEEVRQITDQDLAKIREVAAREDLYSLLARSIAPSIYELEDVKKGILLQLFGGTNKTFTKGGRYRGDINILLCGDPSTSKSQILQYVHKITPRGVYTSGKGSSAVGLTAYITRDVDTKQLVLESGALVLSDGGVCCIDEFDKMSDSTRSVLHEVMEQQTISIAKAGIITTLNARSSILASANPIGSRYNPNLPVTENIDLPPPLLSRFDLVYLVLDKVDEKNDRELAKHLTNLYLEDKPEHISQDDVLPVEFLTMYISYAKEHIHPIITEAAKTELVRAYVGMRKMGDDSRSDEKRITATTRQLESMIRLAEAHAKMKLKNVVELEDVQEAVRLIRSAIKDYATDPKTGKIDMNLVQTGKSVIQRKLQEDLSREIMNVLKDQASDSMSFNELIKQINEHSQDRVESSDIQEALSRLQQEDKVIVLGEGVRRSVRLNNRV
Mcm467, sequence (P53091 whole entry, chain 2 of 3): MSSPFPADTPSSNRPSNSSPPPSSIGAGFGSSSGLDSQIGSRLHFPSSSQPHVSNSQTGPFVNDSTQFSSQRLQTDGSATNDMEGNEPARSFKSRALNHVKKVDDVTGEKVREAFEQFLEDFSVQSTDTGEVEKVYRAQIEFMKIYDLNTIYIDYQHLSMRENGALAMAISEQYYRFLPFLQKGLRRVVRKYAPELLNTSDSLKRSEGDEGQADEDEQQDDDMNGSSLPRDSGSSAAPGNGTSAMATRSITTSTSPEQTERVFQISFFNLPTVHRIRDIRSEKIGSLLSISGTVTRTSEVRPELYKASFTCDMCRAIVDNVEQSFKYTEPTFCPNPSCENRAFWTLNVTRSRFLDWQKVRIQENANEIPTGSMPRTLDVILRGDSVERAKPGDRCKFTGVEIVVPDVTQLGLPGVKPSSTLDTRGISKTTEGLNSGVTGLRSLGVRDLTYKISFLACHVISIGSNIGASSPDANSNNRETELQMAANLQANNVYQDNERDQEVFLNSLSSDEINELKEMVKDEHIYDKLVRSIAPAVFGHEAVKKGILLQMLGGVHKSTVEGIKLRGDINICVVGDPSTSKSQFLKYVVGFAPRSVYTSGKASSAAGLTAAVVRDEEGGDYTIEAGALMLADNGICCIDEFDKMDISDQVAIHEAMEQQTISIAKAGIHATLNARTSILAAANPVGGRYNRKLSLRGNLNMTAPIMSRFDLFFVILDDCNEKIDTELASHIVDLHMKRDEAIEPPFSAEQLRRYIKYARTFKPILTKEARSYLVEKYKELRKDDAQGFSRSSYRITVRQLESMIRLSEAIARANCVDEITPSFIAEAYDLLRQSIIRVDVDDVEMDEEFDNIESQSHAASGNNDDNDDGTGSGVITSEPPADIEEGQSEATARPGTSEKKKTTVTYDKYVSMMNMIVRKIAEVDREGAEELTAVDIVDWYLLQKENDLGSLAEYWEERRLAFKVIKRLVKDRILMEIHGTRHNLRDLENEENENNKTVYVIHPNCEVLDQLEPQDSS
Mcm467, sequence (P38132 whole entry, chain 3 of 3): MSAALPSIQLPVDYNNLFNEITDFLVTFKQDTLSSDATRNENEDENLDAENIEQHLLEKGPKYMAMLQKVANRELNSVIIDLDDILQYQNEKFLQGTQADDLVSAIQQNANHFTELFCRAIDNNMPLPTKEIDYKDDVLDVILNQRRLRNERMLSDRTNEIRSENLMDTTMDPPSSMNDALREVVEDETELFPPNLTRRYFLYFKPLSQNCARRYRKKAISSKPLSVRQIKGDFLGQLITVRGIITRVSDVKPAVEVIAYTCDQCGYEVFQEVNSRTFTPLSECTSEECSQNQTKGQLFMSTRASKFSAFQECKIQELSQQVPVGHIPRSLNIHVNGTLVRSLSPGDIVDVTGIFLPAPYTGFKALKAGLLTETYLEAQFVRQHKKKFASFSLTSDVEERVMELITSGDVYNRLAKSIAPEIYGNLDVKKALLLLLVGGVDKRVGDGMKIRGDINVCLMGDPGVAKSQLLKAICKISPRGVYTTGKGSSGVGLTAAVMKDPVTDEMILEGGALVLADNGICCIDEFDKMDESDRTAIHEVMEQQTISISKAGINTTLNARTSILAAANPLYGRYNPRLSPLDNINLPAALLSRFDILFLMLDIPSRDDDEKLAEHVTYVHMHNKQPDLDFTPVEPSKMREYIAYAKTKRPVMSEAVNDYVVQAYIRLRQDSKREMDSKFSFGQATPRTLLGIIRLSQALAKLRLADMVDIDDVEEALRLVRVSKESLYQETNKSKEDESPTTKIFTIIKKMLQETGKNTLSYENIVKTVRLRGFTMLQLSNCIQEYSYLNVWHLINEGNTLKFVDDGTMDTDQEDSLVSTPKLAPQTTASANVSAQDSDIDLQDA

TGTCTAATCCCGAAAGGCCCTGCCACTGAAATCAACACCTAAAGCATTGA (ssDNA) [oligo 826]
binds: all assays above
